{"source": "patent US20170298146A1", "about": "(MODIQUEST B V, published 2017)", "binders": {"B1": {"name": "RhmAb2.102 (antibody, human IgG1, lambda)", "heavy": "not shown", "light": "QSVLTQPPSMSAAPGQKVTISCSGSSSNIGNNYVSWYQQVPGTAPKLLIYDDNKRPSGIPGRFSGSKSATSATLGITGLQAGDEADYYCGSWDDNLSVVLFGGGTKLTVLGQPKAAPSVTLFPPSSEELQANKATLVCLISDFYPGAVTVAWKADSSPVKAGVETTTPSKQSNNKYAASSYLSLTPEQWKSHRSYSCQVTHEGSTVEKTVAPTECS", "notes": "Human IgG1 lambda; also called Rhm2.102"}}, "key": {"[1]": {"biological_target": "T1, human recombinant histone H2A (human)", "T1 construct": "Non-deiminated", "test": "ELISA, 0.016 ug/well", "method": "(§1) CFC-1 and CFC-0 were coated at the same concentration and served as positive and negative controls, respectively, for specific anti-citrulline reactivity and as coating controls. Non-coated wells were used to test for aspecific binding of the antibodies. […] Detection of bound anti-citrulline antibodies was performed by incubating the wells with rabbit-anti-human-HRP (1:2000) for one hour at RT followed by incubation with TMB substrate. The resulting OD (y-axis) is a measure for antibody binding. H1=recombinant histone 1; H1/p2=huPAD2 recombinant histone 1; H1/p4=huPAD4 recombinant histone 1 and so forth (x-axis)."}, "[2]": {"biological_target": "T2, huPAD2 deiminated human recombinant histone H2A (human)", "T2 construct": "also called H2A/p2", "test": "ELISA, 0.016 ug/well", "method": "as §1"}, "[3]": {"biological_target": "T3, huPAD4 deiminated human recombinant histone H2A (human)", "T3 construct": "also called H2A/p4; huPAD4 deiminated histone 2A", "test": "ELISA, 0.016 ug/well", "method": "as §1"}, "[4]": {"biological_target": "T4, human recombinant histone H2B (human)", "T4 construct": "Non-deiminated", "test": "ELISA, 0.016 ug/well", "method": "as §1"}, "[5]": {"biological_target": "T5, huPAD4 deiminated human recombinant histone H2B (human)", "T5 construct": "also called H2B/p4", "test": "ELISA, 0.016 ug/well", "method": "as §1"}, "[6]": {"biological_target": "T6, huPAD2 deiminated human recombinant histone H3 (human)", "T6 construct": "also called H3/p2", "test": "ELISA, 0.016 ug/well", "method": "as §1"}, "[7]": {"biological_target": "T7, huPAD4 deiminated human recombinant histone H3 (human)", "T7 construct": "also called H3/p4", "test": "ELISA, 0.016 ug/well", "method": "as §1"}, "CFC-1 [8]": {"biological_target": "T8, CFC-1", "T8 construct": "Positive control for anti-citrulline reactivity; also called cfc1 XG", "test": "ELISA, 0.016 ug/well", "method": "as §1"}, "CFC-1 [9]": {"biological_target": "T8, CFC-1", "test": "peptide ELISA, 10 ug/well", "method": "as §1, with “Biotin and citrulline-containing peptides derived from histone 2A were immobilized on NEUTRAVIDIN®-coated 96-well ELISA plates (0.3 μg/well). CFC-1” for “CFC-1”, “controls respectively” for “controls, respectively,”, “binding.” for “binding. H1=recombinant histone 1; H1/p2=huPAD2 recombinant histone 1; H1/p4=huPAD4 recombinant histone 1 and so forth (x-axis).”\n(§2) Ninety-six-well ELISA plates were coated with NEUTRAVIDIN® (0.1 μg/well) by overnight incubation at 4° C. Wells were washed five times with PBS-TWEEN®-20 (PBS-T) and blocked by a one-hour incubation with PBS-T+1% Bovine serum albumin (BSA) at room temperature (RT). After five more washes with PBS-T, wells were incubated for one hour at RT with histone-derived citrulline and biotin-containing peptides (0.3 μg/well). […] Wells were washed five times with PBS-T and incubated with rabbit-anti-human-HRP (1:2000) for one hour at RT followed by five washes with PBS-T and three wash steps with PBS. Wells were incubated for five minutes with TMB substrate before stopping the reaction with 2 M H₂SO₄. Optical density was measured by 450 nm and is a measure for the affinity of the antibodies used."}, "[10]": {"biological_target": "T9, Histone 2A citrulline-containing peptide 1 (human, also: biotin label)", "T9 construct": "also called AAASGXGKQGGK", "T9 peptide": "AAASG[Cit]GKQGGK", "test": "peptide ELISA, 10 ug/well", "method": "as §1, with “Biotin and citrulline-containing peptides derived from histone 2A were immobilized on NEUTRAVIDIN®-coated 96-well ELISA plates (0.3 μg/well). CFC-1” for “CFC-1”, “controls respectively” for “controls, respectively,”, “binding.” for “binding. H1=recombinant histone 1; H1/p2=huPAD2 recombinant histone 1; H1/p4=huPAD4 recombinant histone 1 and so forth (x-axis).”\nas §2"}, "[11]": {"biological_target": "T10, Histone 2A citrulline-containing peptide 2 (human, also: biotin label)", "T10 peptide": "AKAKS[Cit]SSRAGL", "test": "peptide ELISA, 10 ug/well", "method": "as §1, with “Biotin and citrulline-containing peptides derived from histone 2A were immobilized on NEUTRAVIDIN®-coated 96-well ELISA plates (0.3 μg/well). CFC-1” for “CFC-1”, “controls respectively” for “controls, respectively,”, “binding.” for “binding. H1=recombinant histone 1; H1/p2=huPAD2 recombinant histone 1; H1/p4=huPAD4 recombinant histone 1 and so forth (x-axis).”\nas §2"}, "[12]": {"biological_target": "T11, Histone 2A citrulline-containing peptide 3 (human, also: biotin label)", "T11 peptide": "KSRSS[Cit]AGLQFP", "test": "peptide ELISA, 10 ug/well", "method": "as §1, with “Biotin and citrulline-containing peptides derived from histone 2A were immobilized on NEUTRAVIDIN®-coated 96-well ELISA plates (0.3 μg/well). CFC-1” for “CFC-1”, “controls respectively” for “controls, respectively,”, “binding.” for “binding. H1=recombinant histone 1; H1/p2=huPAD2 recombinant histone 1; H1/p4=huPAD4 recombinant histone 1 and so forth (x-axis).”\nas §2"}, "[13]": {"biological_target": "T12, Histone 2A citrulline-containing peptide 4 (human, also: biotin label)", "T12 peptide": "QFPVG[Cit]VHRLLR", "test": "peptide ELISA, 10 ug/well", "method": "as §1, with “Biotin and citrulline-containing peptides derived from histone 2A were immobilized on NEUTRAVIDIN®-coated 96-well ELISA plates (0.3 μg/well). CFC-1” for “CFC-1”, “controls respectively” for “controls, respectively,”, “binding.” for “binding. H1=recombinant histone 1; H1/p2=huPAD2 recombinant histone 1; H1/p4=huPAD4 recombinant histone 1 and so forth (x-axis).”\nas §2"}, "[14]": {"biological_target": "T13, Histone 2A citrulline-containing peptide 5 (human, also: biotin label)", "T13 peptide": "VGRVH[Cit]LLRKGN", "test": "peptide ELISA, 10 ug/well", "method": "as §1, with “Biotin and citrulline-containing peptides derived from histone 2A were immobilized on NEUTRAVIDIN®-coated 96-well ELISA plates (0.3 μg/well). CFC-1” for “CFC-1”, “controls respectively” for “controls, respectively,”, “binding.” for “binding. H1=recombinant histone 1; H1/p2=huPAD2 recombinant histone 1; H1/p4=huPAD4 recombinant histone 1 and so forth (x-axis).”\nas §2"}}, "note": "Non-standard residues stand in square brackets, D forms with d. No end group written: not given here. Cit = NC(=O)NCCC[C@H](N)C(=O)O", "data": [{"binder": "B1", "values": [{"measurement": "OD", "setting": "[1]", "value": 0.057, "unit": "OD"}, {"measurement": "OD", "setting": "[2]", "value": 0.628, "unit": "OD"}, {"measurement": "OD", "setting": "[3]", "value": 0.426, "unit": "OD"}, {"measurement": "OD", "setting": "[4]", "value": 0.065, "unit": "OD"}, {"measurement": "OD", "setting": "[5]", "value": 0.052, "unit": "OD"}, {"measurement": "OD", "setting": "[6]", "value": 0.155, "unit": "OD"}, {"measurement": "OD", "setting": "[7]", "value": 0.076, "unit": "OD"}, {"measurement": "OD", "setting": "CFC-1 [8]", "value": 0.702, "unit": "OD"}, {"measurement": "OD", "setting": "CFC-1 [9]", "value": 3.27, "unit": "OD"}, {"measurement": "OD", "setting": "[10]", "value": 3.11, "unit": "OD"}, {"measurement": "OD", "setting": "[11]", "value": 0.552, "unit": "OD"}, {"measurement": "OD", "setting": "[12]", "value": 0.619, "unit": "OD"}, {"measurement": "OD", "setting": "[13]", "value": 2.06, "unit": "OD"}, {"measurement": "OD", "setting": "[14]", "value": 0.239, "unit": "OD"}]}]}
